Data from PMC8563793, “C-Glycoside metabolism in the gut and in nature: Identification, characterization, structural analyses and distribution of C-C bond-cleaving enzymes” (Nature Communications, 2021).

Columns and labels:
EuCGD (DfgA-B complex) = EuCGD (DfgA-B complex) ([Eubacterium] cellulosolvens, UniProt I5AX49+I5AX50); assay: steady-state kinetics, HPLC of aglycone; conditions: 30 °C, 2 min, 2 μM enzyme; enzymatically prepared substrate
purified protein [1] = substrate: O=C1[C@@H](O)[C@H](c2c(O)cc(O)c3c(=O)cc(-c4ccc(O)c(O)c4)oc23)O[C@H](CO)[C@H]1O; assay: purified protein; conditions: 30 °C, 30 min, 2 μM enzyme, enzymatically prepared substrate
purified protein [2] = substrate: Cc1c(C(=O)O)c(O)cc2c1C(=O)c1c(O)c([C@@H]3O[C@H](CO)[C@@H](O)C(=O)[C@H]3O)c(O)c(O)c1C2=O; assay: purified protein; conditions: 30 °C, 30 min, 2 μM enzyme, enzymatically prepared substrate
purified protein [3] = substrate: O=C1[C@@H](O)[C@H](c2c(O)cc3oc(-c4ccc(O)c(O)c4)cc(=O)c3c2O)O[C@H](CO)[C@H]1O; assay: purified protein; conditions: 30 °C, 2 μM enzyme, enzymatically prepared substrate
purified protein [4] = substrate: O=C1[C@@H](O)[C@H](c2c(O)cc3oc(-c4ccc(O)cc4)cc(=O)c3c2O)O[C@H](CO)[C@H]1O; assay: purified protein; conditions: 30 °C, 2 μM enzyme, enzymatically prepared substrate
[5] = substrate: O=C1[C@@H](O)[C@H](c2c(O)cc(O)c3c(=O)cc(-c4ccc(O)c(O)c4)oc23)O[C@H](CO)[C@H]1O; assay: steady-state kinetics, HPLC of aglycone; assay type: biochemical, human intestinal bacterium PUE; conditions: 30 °C, 90 min, 5 μM enzyme, enzymatically prepared substrate
[6] = substrate: O=C1[C@@H](O)[C@H](c2c(O)ccc3c(=O)c(-c4ccc(O)cc4)coc23)O[C@H](CO)[C@H]1O; assay: steady-state kinetics, HPLC of aglycone; assay type: biochemical, human intestinal bacterium PUE; conditions: 30 °C, 2 min, 2 μM enzyme, enzymatically prepared substrate
[7] = substrate: O=C1[C@@H](O)[C@H](c2c(O)cc3oc(-c4ccc(O)c(O)c4)cc(=O)c3c2O)O[C@H](CO)[C@H]1O; assay: steady-state kinetics, HPLC of aglycone; assay type: biochemical, Microbacterium trichothecenolyticum; conditions: 30 °C, 30 min, 2 μM enzyme, enzymatically prepared substrate
[8] = substrate: O=C1[C@@H](O)[C@H](c2c(O)cc3oc(-c4ccc(O)cc4)cc(=O)c3c2O)O[C@H](CO)[C@H]1O; assay: steady-state kinetics, HPLC of aglycone; assay type: biochemical, Microbacterium trichothecenolyticum; conditions: 30 °C, 30 min, 2 μM enzyme, enzymatically prepared substrate
[9] = substrate: O=C1[C@@H](O)[C@H](c2c(O)cc3oc4cc(O)c(O)cc4c(=O)c3c2O)O[C@H](CO)[C@H]1O; assay: steady-state kinetics, HPLC of aglycone; assay type: biochemical, Microbacterium trichothecenolyticum; conditions: 30 °C, 30 min, 2 μM enzyme, enzymatically prepared substrate
purified protein [10] = substrate: O=C1[C@@H](O)[C@H](c2c(O)cc3oc4cc(O)c(O)cc4c(=O)c3c2O)O[C@H](CO)[C@H]1O; assay: purified protein; conditions: 30 °C, 30 min, 2 μM enzyme, enzymatically prepared substrate

`O=C1[C@@H](O)[C@H](c2c(O)cc3oc4cc(O)c(O)cc4c(=O)c3c2O)O[C@H](CO)[C@H]1O` [compound 5, 3’-oxo-mangiferin] was tested, and the Km (EuCGD (DfgA-B complex)) was > 5 mM.

B1: AgCGD2 (Arthrobacter globiformis NBRC 12137) (protein)
chain 1: MSEGIAGSGIELGITLYSLTSEFAAGLYTPETLIKAVADEGLGPGVEFNIAQMLRTYPDVDDDFVKLWRDSMDRYGLTPSAVGTNLDMGRRKDRDMTPDEEYDFFAAQLRTANKLGFHRVVIRSAGKELLRRLLPLAEKYDQKLGYEIHAPQGPNDPKILQIREMYAELGSDRLGFTADFSSTMHSLSPTLFRTLTQMGLPEEHFAVMQDIWRKPLPMQERNQEFEDYLRANNFDPAQLGPFTRLAFNMHGLVPPEEWLDIMPQIFHVHAKFYDIDENGNEPAMDIPRIVRQFVKGGYRGYLSSEWEGHAFADLGESDPIDLVKKQHSLMRRAIEEAVDPTVSQPALVETAK
chain 2: MATHNSLFQDSDVRKHPEGIAVSVQLPWYRSLWLSAVDDVAATVNGVKIPRESLRFELQGQTYSIAELPEQWETLWFVADKPDVVIPLDRIPDAGEEIDVEVILTLRLLYMQIAPMRYVGNRVAVERKVVLA
Work on B1 yielded a kcat (purified protein [1]) of 40 ± 5 min⁻¹.

B2: MiCGD (CarB-C complex) (Microbacterium sp.) (protein)
chain 1: MTALALPRLGVTLYSFTPYYHAREYSFEDLIRIAGERDLGPGLEIVGYQSIKGFPKLPDGFVKDFRRRVDEAGLELSAMGANADAGIPHDRLLNEDELTEYMAHQLHTAKELGFPIVRVQHSVTPDLMERLLPLAEKLDLTMGMEIHSPHSVHHPKIQALVERYEKLGSPHLGFIPDWGASLTRLPPSALQTYAAADVPRELLDAYDRQWDVFHAEGVITTDAEQGAQFRRMRELNERFGGDDVSVRIGTNAVGLFGHQRPEDWSAIMPWVVHVHGKFYGIDENGEEPSVPHGLLLRQLVDAGYTGYISSEWEGWHWNTTDDPFEMVAWQHRLMRRIFGEIEAEAGVR
chain 2: MFRERIIVQDSLVADESGSAFRIRLPWYRALPLSTIEELSVTVDGTAFDPARLRIAVNDGEWALAEAQLRTDDVWFVLDDATVRLPGLVLDAGAHEVQATLSMRIPYLPVAGKPLSMAETDQKRMDVKELTA
Work on B2 yielded a Km (purified protein [2]) of 0.39 mM.

B3: EuCGD (DfgA-B complex) ([Eubacterium] cellulosolvens 6) (protein)
chain 1: MYRYEKKGPKRGVALYSYSAEFGLTKTLEDCFEDLHDMGAHGIEILANTHIENYPYPTDEWVEKWWRLCDKYEIVPVEYGNWIDSHVLGDRDLTTEESVEMLKRDIRLAHRLGFTVMRTKMPVINDLLEPVENWKEIIKGALPLAEELGIKMCPEIHTPSNLKGKLVNDFVEFIKETGTKNFGLNIDFSVFRTSFAEGEWVDPNYTPNKPEDIIPLLPYVYCCHAKFIHMSDDFKETTIPYEEVVKTMEDNGYEGYLLSEYEGADKYDEGYEVGQTLRKHHILLKNLLGD
chain 2: MEKQVIQSVGFRNIKNGNGEITGFQFKVKLPYYRGVFLSQIRPGTLFVDGQKIEKDQITWTINGEEYTNQEMRGDFKTHWATTKPAVLKVKMPGGLAQGYHDLKYGFCFTSSYMPPIIQDGLDPDKESMVYMPEFGHHVNERRLLIV
Work on B3 yielded a Km (purified protein [3]; 2 min) of 11 mM, a kcat (purified protein [3]; 2 min) of 0.27 min⁻¹ and a Km (purified protein [4]; 2 min) of 3.6 mM. It also gave a kcat (purified protein [4]; 2 min) of 0.18 min⁻¹.

B4: PuCGD (DgpB-C complex) (human intestinal bacterium PUE) (protein)
chain 1: MSNVKLGVTLYSFSTEYCQGKMTLEDCIRTAKELGAAGFEIVATQMIPSYPYVSDKFLGELKSICQYYDMEPVCYGANCDRGLRGDRNLTGDEMVAMAVRDIKNAHKMGCKVVREQWLMGPENFAKLAPFAEHYGVKVGIEVHNPETPITQSTKDYIAAIDKTGSKYLGLIPDFGCFANKPNKMNWDNALADGADKKLLEMARDMKYDNVPYDEAVKRLTAAGAKKVELTTMRDMYTFLTFKKDVSAELQGLKDMIPYCIHMHGKYHYMYENLQEAAIPYDDIMKIVSESDYDGYIVSEYEEYNSGHSIEMLRRHLKMMHNFVD
chain 2: MGLALRLNFVDVVCDDSLKNFWANGKKIGYQFDVRLSYYRGHFLSTIDEIGVKVDGVDVPAENISLCLDGKEYGVAELHDLVNVFWPIIEPATIKVFQPGGLSEEEHDVDFTLYFRSPYMALSETEYQSIDSCGSKRLNVQN
In the case of B4, the Km [5] is reported as 0.79 mM, the Km [6] is reported as 12 mM and the kcat [6] is reported as 0.41 min⁻¹.

B5: MtCGD (Microbacterium trichothecenolyticum) (protein)
chain 1: MTALGTPIQGVTLYSFTRAFHGREYDLEGLIRKTAADGFGPGLEIIGFSSFRGFPAIDDAYAGWFRDLIDEVGLVTTSLAVNADIGIHRDRLLNQDELIEYMTLQIKAAAKLGFPIARVQISIEPDSMEALAPIAEAHGVTLALEVHADQYASHPRILALRDRYEKVGSPFLGFTMDWGATVSGFAPSLIEAYRRRGASEELLGQVVDLWNTYYEQGPPADQADHGQRFGSFIGLAARHGRPDLGIDFGINGTGLFGPARVDDWRTIAPWIKHVHGKFFGIDENGEEPSVPVRDLVKLLVENGYNGAISSEYEGWHWNYWQSPFDIISDEQAVQRSAAEAAGSRMITDLAEARTQLGAWLPNTEGAHA
chain 2: MIPDRIIEQGTLRTDGPRAAVEVRLPWYRALPGSCIAGAELTIDGKTAPAESLRWEMNGAEFTFDELRTNIDEWWFPTDSAVLSGDLDIEADAEHEVTVGLTLYIPYIIISDTETLHIDEKNTKTMKAVAA
B5 gave a kcat [7] of 21 ± 2 min⁻¹, a Km [8] of 8.2 ± 1.8 mM and a kcat [8] of 32 ± 5 min⁻¹. It also gave a Km [9] of 6.1 ± 1.4 mM and a kcat [9] of 0.60 ± 0.07 min⁻¹.

B6: AgCGD1 (Arthrobacter globiformis NBRC 12137) (protein)
chain 1: MTSLGTPIQGVTLYSFTRAFHARQYDLDGLIRKVAAEGFGPGLELIGFSSLRGFPDGIDDAFVGQFRDLVAEVDLIPTSLAVNVDTGIRRDRLMNHDELVEYMSKQIEVAARLGFPIARVQISLTPDAMESLLPVAEKYGVTLALEVHADQHGAHERVLALRDRYEKLDSPLLGFTADWGATVTGFAPSLLEAYRRRGAAEDLLRQVVELWNGFYAEGPPNTQKVHGERFGAFIGLAARSGRPDLGIDFAINGTGLFGPAPLDTWLEIMPWVRHVHGKFFGIDENGEEPSVPVRDLVRQLVENGYSGAISSEYEGWHWNNWQDPFDIIRGEQAVQRSAAANAGSAMITDASEARRILNSHLAQPVRG
chain 2: MIADRIIEHGTLITRDGRAAVEVRIPWYRALPGSCIAGAALTVDGVAAPEDTLRWTMNNRTFSFEELVDETGEWWFPLDSAVLSGDLPVWDDQAEHEVRVDLKLCIPYIITDHGVLHIEEHDTKTMKVAQQ
With B6 the Km (purified protein [3]; 30 min) was 3.4 ± 0.3 mM, the kcat (purified protein [3]; 30 min) was 0.57 ± 0.02 min⁻¹ and the Km (purified protein [4]; 30 min) was 3.5 ± 0.4 mM. For the same molecule, the kcat (purified protein [4]; 30 min) was 4.6 ± 0.2 min⁻¹, the Km (purified protein [10]) was 3.7 ± 0.5 mM and the kcat (purified protein [10]) was 0.17 ± 0.01 min⁻¹.
